This passage reports Km, kcat and kcat/Km results from PMC3292560, “Isolation and Characterization of EstC, a New Cold-Active Esterase from Streptomyces coelicolor A3(2)” (PLoS ONE, 2012).

The term Km denotes the substrate concentration at which the rate is half of its maximum. In general, kcat refers to the number of substrate molecules converted per active site and unit of time at saturation. As a reminder, the kcat/Km is the turnover number divided by the Michaelis constant.

Common to all, as to type: biochemical, Streptomyces coelicolor
Substrate in data set [1]: CC(=O)Oc1ccc([N+](=O)[O-])cc1
Briefly: purified protein. The note with it: 50 mM Tris-HCl pH 8.5, 0.1% Triton X-100, 35°C, fitted below substrate-inhibiting concentrations.

Substrate in data set [2]: CCCC(=O)Oc1ccc([N+](=O)[O-])cc1
Briefly: purified protein. The note with it: 50 mM Tris-HCl pH 8.5, 0.1% Triton X-100, 35°C, fitted below substrate-inhibiting concentrations.

Substrate in data set [3]: CCCCC(=O)Oc1ccc([N+](=O)[O-])cc1
Briefly: purified protein. The conditions noted are these: 50 mM Tris-HCl pH 8.5, 0.1% Triton X-100, 35°C, fitted below substrate-inhibiting concentrations.

Substrate in data set [4]: CCCCCC(=O)Oc1ccc([N+](=O)[O-])cc1
Briefly: purified protein. The note with it: 50 mM Tris-HCl pH 8.5, 0.1% Triton X-100, 35°C, fitted below substrate-inhibiting concentrations.

Substrate in data set [5]: CCCCCCCC(=O)Oc1ccc([N+](=O)[O-])cc1
Briefly: purified protein. The conditions noted are these: 50 mM Tris-HCl pH 8.5, 0.1% Triton X-100, 35°C, fitted below substrate-inhibiting concentrations.

Substrate in data set [6]: CC(=O)OCC(COC(C)=O)OC(C)=O
Briefly: pH-stat titration of released fatty acid. The note with it: 5 mM Tris-HCl pH 8.5, 1% arabic gum emulsion, 35°C. The text has this: (§1) pH-stat titration of released fatty acid on EstC

Substrate in data set [7]: CCCC(=O)OCC(COC(=O)CCC)OC(=O)CCC
Briefly: pH-stat titration of released fatty acid. The note with it: 5 mM Tris-HCl pH 8.5, 1% arabic gum emulsion, 35°C.
Excerpt: as §1

B1: EstC (Streptomyces coelicolor A3(2)) (protein)
chain: MSRNAAFSPPPSARAYRLRTARGEFAVVDSPAAAGVAPRGVVMMLPGFTGSKEDFTLLHRPLGARGYRTVAVDGRGQYESDGPEHDESAYARPELARDVLAQAAALGTRVHLVGHSLGGQIARAAVLLDPAPFLSLTLMSSGPARISESQRQRVKLLRDALDTMTMAEVWEVMQAMGPPEEAGAPAPAHGPEDRVRLRDRWLGTRPAQLLATGGQLCTEPDRVAELAAVPLPFHVLSGTYDDTWPVPLLDEMALRLDARRTVVAGAEHSPNTDQPLPTARALADFWDDHPVPPRPYVR
notes: full-length ORF, no signal peptide, N-terminal His-tag (pET16b) kept, E. coli BL21(DE3), IMAC; 34665 Da with tag without initiator Met
On to B1, for which the Km is 2900 ± 800 µM in data set [1]; 840 ± 50 µM in data set [2]; 270 ± 30 µM in data set [3]; 71 ± 4 µM in data set [4]; 110 ± 18 µM in data set [5]; 90000 ± 1000 µM in data set [6]. Further, in data set [7], the Km amounted to 620 ± 300 µM. Further, the kcat in data set [1] amounted to 451 ± 10 s⁻¹; in data set [2], 124 ± 2 s⁻¹; in data set [3] it was 199 ± 6 s⁻¹; in data set [4], 41 ± 1 s⁻¹; in data set [5], 58 ± 3 s⁻¹; in data set [6] it was 151 ± 2 s⁻¹. Besides, in data set [7], the kcat stood at 14 ± 1 s⁻¹. Moreover, the kcat/Km in data set [1] worked out at 156000 ± 41000 M⁻¹ s⁻¹; in data set [2], 148000 ± 10000 M⁻¹ s⁻¹; in data set [3], 737000 ± 77000 M⁻¹ s⁻¹; in data set [4] it was 578000 ± 36000 M⁻¹ s⁻¹; in data set [5], 527000 ± 90000 M⁻¹ s⁻¹; in data set [6], 1700 ± 30 M⁻¹ s⁻¹. Further, the kcat/Km in data set [7] was 23000 ± 12000 M⁻¹ s⁻¹.
